Assay [1] deals with complement C1q (human) (UniProt P02745). Kind of assay: cell-based or functional assay.
For assay [2] the target is unchanged. Kind of assay: flow cytometry, vWF on cholesterol crystals with C1q against crystals without C1q. (Flow cytometry measures light scatter and fluorescence of single cells or particles in a stream.)
The target is the same in assay [3]. Kind of assay: flow cytometry, vWF (10 µg/ml) bound to C1q immobilized on cholesterol crystals, mean of n=5.

The record followed here is patent publication US20220401524A1.

Chain of UniProt P02745 (P02745 23-245, chain 1 of 3): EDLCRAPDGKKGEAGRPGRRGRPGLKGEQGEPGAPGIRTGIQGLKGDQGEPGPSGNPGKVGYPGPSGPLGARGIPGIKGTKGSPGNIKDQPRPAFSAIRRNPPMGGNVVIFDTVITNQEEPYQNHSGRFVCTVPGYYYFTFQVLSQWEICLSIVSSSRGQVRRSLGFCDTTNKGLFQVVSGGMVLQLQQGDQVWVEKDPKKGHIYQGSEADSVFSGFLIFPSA
Chain of UniProt P02745 (chain, as listed by the source, chain 2 of 3): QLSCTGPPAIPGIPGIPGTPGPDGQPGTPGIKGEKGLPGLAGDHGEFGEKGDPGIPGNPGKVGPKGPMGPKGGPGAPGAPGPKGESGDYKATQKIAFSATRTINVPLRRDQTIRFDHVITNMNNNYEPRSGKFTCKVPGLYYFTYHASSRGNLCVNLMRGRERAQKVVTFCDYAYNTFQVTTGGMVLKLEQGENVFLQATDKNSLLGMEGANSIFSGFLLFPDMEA
Chain of UniProt P02745 (chain, as listed by the source, chain 3 of 3): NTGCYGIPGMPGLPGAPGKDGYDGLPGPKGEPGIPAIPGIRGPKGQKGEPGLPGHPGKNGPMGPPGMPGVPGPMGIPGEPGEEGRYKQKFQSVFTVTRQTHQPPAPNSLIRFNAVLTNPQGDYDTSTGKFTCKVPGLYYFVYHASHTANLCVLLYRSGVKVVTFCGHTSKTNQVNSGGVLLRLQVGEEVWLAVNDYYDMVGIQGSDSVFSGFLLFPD

Regarding “recombinant von Willebrand factor (from UniProt P04275 764-2813) (ligand)”, in the assay with complement C1q (human) [1], the caspase-1 activity of HMDMs (% CD11c+ cells in FLICA+ gate) came to 9.37%; the early phagocytosis of pHrodo-dyed CC complexes by HMDMs (30 min, % CD11c+ cells in pHrodo Red Ester+ gate) was found to be 54.5%; the late phagocytosis of CC complexes by HMDMs (18 hr, % CD11c+ cells in SSC high gate) is 13.7%. Moreover, the fold gMFI against CC without C1q in the assay with complement C1q (human) [2] turned out to be 67 fold. Besides, in the assay with complement C1q (human) [3], the gMFI was 134000 gMFI.
